The record followed here is PMC8367383, “A CTP-dependent gating mechanism enables ParB spreading on DNA” (eLife, 2021).

By stoichiometry N is commonly meant a count of units in the complex or per binding partner.

The target in series [1] is T1, C. crescentus ParB (WT); ParB-His6 (Caulobacter vibrioides, UniProt B8GW30, E102A).
T1 construct: full length, C-terminal His6 (pET21b), made in E. coli; dimer
As to the kind of experiment: DRaCALA membrane-spotting. It counts as binding. The settings on record: labelled compound (5 nM 32P-alpha-CTP with 30 uM unlabelled CTP); 1.5 uM 22 bp parS DNA; 10 mM CaCl2, pH 8.0, room temperature.

Series [2] deals with T2, C. crescentus ParB (WT); ParB-His6 (Caulobacter vibrioides, UniProt B8GW30).
T2 construct: full length, C-terminal His6 (pET21b), made in E. coli; dimer
T2 sequence (B8GW30 whole entry): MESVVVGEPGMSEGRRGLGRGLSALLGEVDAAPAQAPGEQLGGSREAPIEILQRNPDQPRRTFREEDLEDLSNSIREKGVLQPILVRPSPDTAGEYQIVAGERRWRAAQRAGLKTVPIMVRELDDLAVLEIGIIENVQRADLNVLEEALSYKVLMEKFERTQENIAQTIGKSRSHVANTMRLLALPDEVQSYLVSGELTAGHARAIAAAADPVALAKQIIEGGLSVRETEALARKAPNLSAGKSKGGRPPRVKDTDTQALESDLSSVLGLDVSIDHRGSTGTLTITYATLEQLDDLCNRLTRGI
As to the kind of experiment: EnzChek inorganic phosphate release. It counts as biochemical. The settings on record: 0-1000 uM CTP, 1 uM ParB, 0.5 uM 22 bp parS DNA; Mg2+, pH 8.0, 25 C; rates only in figure.

Series [3] deals with C. crescentus ParB (L224C I304C), dual-cysteine variant (C. crescentus) (UniProt B8GW30). As to the kind of experiment: cross-linking; BMOE double crosslinking of 8 µM dual-cysteine ParB variant ± 0.5 µM DNA (22 bp parS, circular 3 kb parS or scrambled parS plasmid) ± 1 mM CTP; denaturing polyacrylamide and agarose gels; post-treatment with Benzonase or TEV protease; protein released from gel slices of the HMW smear.

Another series concerns the target CTP. Nature of the series: membrane-spotting assay (DRaCALA). The settings on record: highest protein concentration point (about 12.5 µM on x axis); 5 nM radiolabeled CTP α-P32, 30 µM unlabeled CTP, 1.5 µM 22 bp parS DNA; parent: est. 13; read off a plot.
A further series concerns the target T3, ParB∆CTD-His6 (Caulobacter crescentus, UniProt B8GW30 11-254).
T3 sequence: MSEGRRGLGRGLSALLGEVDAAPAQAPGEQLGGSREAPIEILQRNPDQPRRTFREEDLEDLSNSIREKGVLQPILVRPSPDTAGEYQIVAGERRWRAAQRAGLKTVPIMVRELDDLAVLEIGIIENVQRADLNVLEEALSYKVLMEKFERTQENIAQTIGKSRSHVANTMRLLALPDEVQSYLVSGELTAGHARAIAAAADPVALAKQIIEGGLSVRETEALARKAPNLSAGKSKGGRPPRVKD
Nature of the series: crystal structure; no nucleotide; BLI: 100 mM Tris-HCl pH 8.0, 100 mM NaCl, 1 mM MgCl2, 0.005% Tween 20, 22 °C, 1 µM ParB dimer (5 µM for Q35C); crosslinking: 8 µM ParB, 0.5 µM DNA, ±1 mM CTP. As to conditions: protein: recombinant; tags: C-terminal His6; chain copies: 2; blunt, self-complementary palindrome.

Series [4] deals with the molecule itself. Nature of the series: cross-linking; BMOE (1 mM) crosslinking of symmetry-related cysteines; 8 µM single-cysteine ParB variant ± 0.5 µM 22 bp parS DNA ± CTP (0-1000 µM); 10 mM Tris-HCl pH 7.4, 100 mM NaCl, 1 mM MgCl2; 5 min at room temperature; denaturing polyacrylamide gel.

T1 sequence (B8GW30 whole entry E102A): as the sequence (B8GW30 whole entry) above, with E102A counted along it

For the molecule `Nc1ccn([C@@H]2O[C@H](COP(=O)(O)OP(=O)(O)OP(=O)(O)O)[C@@H](O)[C@H]2O)c(=O)n1` [CTP], the DRaCALA membrane-spotting entry in series [1] is “ParB (E102A) did not hydrolyze CTP (Figure 6B) but nevertheless bound CTP efficiently”. For the same molecule, the “EnzChek inorganic phosphate release” value in series [2] is “The CTPase rates were measured at increasing concentration of CTP”.

As for “C. crescentus ParB (L224C I304C), dual-cysteine variant (from UniProt B8GW30 1-304)”, the stoichiometry N in series [3] was determined as 2.

On to C. crescentus ParB (WT) E102A, for which the response with CTP is 24%.

As for C. crescentus ParB (WT) E135A, the response with CTP came to 26%.

As to C. crescentus ParB (WT) G79S, the response with CTP amounted to 3.5%.

On to C. crescentus ParB (WT) N136A, for which, in the series with CTP, the response amounted to 0.7%.

Regarding C. crescentus ParB (WT) Q58A, in the series with CTP, the response is 10%.

Turning to C. crescentus ParB (WT) Q82A, the response with CTP was found to be 15%.

For C. crescentus ParB (WT) R60A, the response with CTP amounted to 0.7%.

C. crescentus ParB (WT) R104A: the response in the series with CTP stood at 0%.

Take C. crescentus ParB (WT) R139A: the response with CTP came to 1.5%.

As for C. crescentus ParB (WT) S74A, the response in the series with CTP was 0.5%.

B1: 22 bp parS (dsDNA)
DNA 1: GGATGTTTCACGTGAAACATCC
DNA 2: GGATGTTTCACGTGAAACATCC
In the case of B1, the binding result in the series with ParB∆CTD-His6 is “binds”.

B2: C. crescentus ParB (Q35C) on a cysteine-less ParB (C297S) background (natural protein, UniProt B8GW30 1-304, looked up)
chain: MESVVVGEPGMSEGRRGLGRGLSALLGEVDAAPACAPGEQLGGSREAPIEILQRNPDQPRRTFREEDLEDLSNSIREKGVLQPILVRPSPDTAGEYQIVAGERRWRAAQRAGLKTVPIMVRELDDLAVLEIGIIENVQRADLNVLEEALSYKVLMEKFERTQENIAQTIGKSRSHVANTMRLLALPDEVQSYLVSGELTAGHARAIAAAADPVALAKQIIEGGLSVRETEALARKAPNLSAGKSKGGRPPRVKDTDTQALESDLSSVLGLDVSIDHRGSTGTLTITYATLEQLDDLSNRLTRGI
notes: ParB, Caulobacter crescentus, with the stated substitutions; pET21b construct, so probably made in E. coli; source: purified (HIS-Select Cobalt gravity flow column, PD-10)
Consider B2, for which, in series [4], the binding result is reported as “binds”.

B3: C. crescentus ParB (L224C) on a cysteine-less ParB (C297S) background (natural protein, UniProt B8GW30 1-304, looked up)
chain: MESVVVGEPGMSEGRRGLGRGLSALLGEVDAAPAQAPGEQLGGSREAPIEILQRNPDQPRRTFREEDLEDLSNSIREKGVLQPILVRPSPDTAGEYQIVAGERRWRAAQRAGLKTVPIMVRELDDLAVLEIGIIENVQRADLNVLEEALSYKVLMEKFERTQENIAQTIGKSRSHVANTMRLLALPDEVQSYLVSGELTAGHARAIAAAADPVALAKQIIEGGCSVRETEALARKAPNLSAGKSKGGRPPRVKDTDTQALESDLSSVLGLDVSIDHRGSTGTLTITYATLEQLDDLSNRLTRGI
notes: as for B2
With B3, the binding result in series [4] is “binds”.

B4: C. crescentus ParB (I304C) on a cysteine-less ParB (C297S) background (natural protein, UniProt B8GW30 1-304, looked up)
chain: MESVVVGEPGMSEGRRGLGRGLSALLGEVDAAPAQAPGEQLGGSREAPIEILQRNPDQPRRTFREEDLEDLSNSIREKGVLQPILVRPSPDTAGEYQIVAGERRWRAAQRAGLKTVPIMVRELDDLAVLEIGIIENVQRADLNVLEEALSYKVLMEKFERTQENIAQTIGKSRSHVANTMRLLALPDEVQSYLVSGELTAGHARAIAAAADPVALAKQIIEGGLSVRETEALARKAPNLSAGKSKGGRPPRVKDTDTQALESDLSSVLGLDVSIDHRGSTGTLTITYATLEQLDDLSNRLTRGC
notes: as for B2
Regarding B4, the binding result in series [4] is given as “binds”.
